# Results from the supplement of paper PMC9112550, “Optimization of the antimicrobial peptide Bac7 by deep mutational scanning” (BMC Biology, 2022).
# System: Escherichia coli TOP10
# Assay: shrunken log2 fold change of peptide-encoding DNA abundance (4.5 h post-induction vs induction); higher = less antimicrobial activity (less host growth inhibition)
# Conditions: time post-induction: 4.5 h; library: site-saturation at positions 5, 18, 19, 20
# 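Also: peptides expressed intracellularly from a pBAD plasmid library in pooled LB shake-flask culture, induced with 0.3% L-arabinose, DNA abundance read by NGS, three biological replicates, DESeq2 with apeglm shrinkage.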
row,Sequence,shrunken log2 fold change
1,RRIRHRPPRLPRPRPRPYWEPRP,-0.238
2,RRIRKRPPRLPRPRPRPITTPRP,-0.174
3,RRIRWRPPRLPRPRPRPYFQPRP,1.83
4,RRIRTRPPRLPRPRPRPIPHPRP,-0.307
5,RRIRNRPPRLPRPRPRPVGHPRP,-0.128
6,RRIRGRPPRLPRPRPRPFAAPRP,1.82
7,RRIRNRPPRLPRPRPRPKFCPRP,-0.198
8,RRIRPRPPRLPRPRPRPIQGPRP,-0.128
9,RRIRKRPPRLPRPRPRPHQWPRP,0.264
10,RRIRPRPPRLPRPRPRPPQTPRP,0.362
11,RRIRKRPPRLPRPRPRPQLIPRP,0.0871
12,RRIRVRPPRLPRPRPRPIPTPRP,0.191
13,RRIRRRPPRLPRPRPRPDHLPRP,-0.0237
14,RRIRDRPPRLPRPRPRPEGAPRP,1.78
15,RRIRLRPPRLPRPRPRPAQCPRP,-0.23
16,RRIRCRPPRLPRPRPRPIKMPRP,-0.185
17,RRIRGRPPRLPRPRPRPEDHPRP,0.536
18,RRIRYRPPRLPRPRPRPRNTPRP,-0.503
19,RRIRERPPRLPRPRPRPTHDPRP,-0.141
20,RRIRPRPPRLPRPRPRPSFDPRP,-0.248
21,RRIRYRPPRLPRPRPRPKWFPRP,-0.87
22,RRIRARPPRLPRPRPRPLCKPRP,0.326

row,Sequence,shrunken log2 fold change
1,RRIRGRPPRLPRPRPRPKAVPRP,0.89
2,RRIRVRPPRLPRPRPRPGMSPRP,0.303
3,RRIRSRPPRLPRPRPRPEGPPRP,0.114
4,RRIRERPPRLPRPRPRPCLKPRP,0.0135
5,RRIRLRPPRLPRPRPRPMMFPRP,-0.269
6,RRIRYRPPRLPRPRPRPFNGPRP,-0.0276
7,RRIRHRPPRLPRPRPRPNIIPRP,-0.307
8,RRIRRRPPRLPRPRPRPIVGPRP,0.0287
9,RRIRNRPPRLPRPRPRPQVQPRP,-0.524
10,RRIRIRPPRLPRPRPRPRIVPRP,-1.21
11,RRIRHRPPRLPRPRPRPPIWPRP,0.324
12,RRIRGRPPRLPRPRPRPNGRPRP,0.419
13,RRIRMRPPRLPRPRPRPLSHPRP,0.177
14,RRIRDRPPRLPRPRPRPNCQPRP,0.156
15,RRIRVRPPRLPRPRPRPDTTPRP,-1.05
16,RRIRQRPPRLPRPRPRPSVMPRP,-0.283
17,RRIRERPPRLPRPRPRPNGCPRP,0.00429
18,RRIRFRPPRLPRPRPRPYHDPRP,-0.722
19,RRIRGRPPRLPRPRPRPKPRPRP,1.16
20,RRIRIRPPRLPRPRPRPAPMPRP,0.0013
21,RRIRDRPPRLPRPRPRPIYRPRP,-0.175
22,RRIRDRPPRLPRPRPRPCFGPRP,-0.112

row,Sequence,shrunken log2 fold change
1,RRIRSRPPRLPRPRPRPYQMPRP,-0.557
2,RRIRNRPPRLPRPRPRPCTYPRP,0.05
3,RRIRARPPRLPRPRPRPRPDPRP,0.819
4,RRIRERPPRLPRPRPRPRGPPRP,0.662
5,RRIRERPPRLPRPRPRPDWVPRP,0.0322
6,RRIRFRPPRLPRPRPRPWHEPRP,-0.00448
7,RRIRFRPPRLPRPRPRPKVDPRP,-0.0492
8,RRIRKRPPRLPRPRPRPPWDPRP,0.68
9,RRIRKRPPRLPRPRPRPKRMPRP,0.296
10,RRIRRRPPRLPRPRPRPAPLPRP,0.857
11,RRIRPRPPRLPRPRPRPQLQPRP,-0.167
12,RRIRERPPRLPRPRPRPFCYPRP,-0.927
13,RRIRERPPRLPRPRPRPGMRPRP,0.471
14,RRIRQRPPRLPRPRPRPFEEPRP,-0.138
15,RRIRIRPPRLPRPRPRPQTEPRP,-0.168
16,RRIRVRPPRLPRPRPRPVQNPRP,-0.029
17,RRIRYRPPRLPRPRPRPSICPRP,-0.0533
18,RRIRDRPPRLPRPRPRPAIRPRP,0.53
19,RRIRWRPPRLPRPRPRPIRFPRP,-0.0926
20,RRIRGRPPRLPRPRPRPDFMPRP,0.545
21,RRIRPRPPRLPRPRPRPRLNPRP,0.307
22,RRIRARPPRLPRPRPRPNLWPRP,0.467

row,Sequence,shrunken log2 fold change
1,RRIRARPPRLPRPRPRPHWIPRP,-0.277
2,RRIRERPPRLPRPRPRPGRNPRP,-0.237
3,RRIRRRPPRLPRPRPRPMHWPRP,0.148
4,RRIRQRPPRLPRPRPRPKIFPRP,0.041
5,RRIRTRPPRLPRPRPRPGEEPRP,-0.00249
6,RRIRRRPPRLPRPRPRPYFRPRP,-0.203
7,RRIRVRPPRLPRPRPRPWCNPRP,3.15
8,RRIRGRPPRLPRPRPRPRCDPRP,0.629
9,RRIRIRPPRLPRPRPRPDLDPRP,-3.99e-05
10,RRIRYRPPRLPRPRPRPKHWPRP,0.266
11,RRIRYRPPRLPRPRPRPLNPPRP,0.0535
12,RRIRARPPRLPRPRPRPNFVPRP,-0.122
13,RRIRGRPPRLPRPRPRPLLTPRP,2.34
14,RRIRERPPRLPRPRPRPCHSPRP,-0.0339
15,RRIRFRPPRLPRPRPRPGMCPRP,-0.0231
16,RRIRHRPPRLPRPRPRPGPQPRP,0.0368
17,RRIRERPPRLPRPRPRPPAMPRP,-0.186
18,RRIRIRPPRLPRPRPRPYFWPRP,-0.388
19,RRIRWRPPRLPRPRPRPGWVPRP,0.224
20,RRIRFRPPRLPRPRPRPMHLPRP,0.00575
21,RRIRFRPPRLPRPRPRPSFHPRP,-0.694
22,RRIRRRPPRLPRPRPRPGQEPRP,0.777

row,Sequence,shrunken log2 fold change
1,RRIRIRPPRLPRPRPRPKDDPRP,-0.254
2,RRIRCRPPRLPRPRPRPTKPPRP,0.531
3,RRIRDRPPRLPRPRPRPCSGPRP,-0.0282
4,RRIRERPPRLPRPRPRPFHTPRP,-0.0574
5,RRIRNRPPRLPRPRPRPWFIPRP,-0.306
6,RRIRWRPPRLPRPRPRPRSEPRP,0.0877
7,RRIRNRPPRLPRPRPRPQKWPRP,-0.0202
8,RRIRLRPPRLPRPRPRPGHRPRP,-0.114
9,RRIRNRPPRLPRPRPRPCMMPRP,-0.325
10,RRIRERPPRLPRPRPRPALTPRP,0.131
11,RRIRFRPPRLPRPRPRPMPTPRP,0.432
12,RRIRSRPPRLPRPRPRPRRFPRP,-0.0186
13,RRIRHRPPRLPRPRPRPNCCPRP,0.0161
14,RRIRERPPRLPRPRPRPGNYPRP,-0.264
15,RRIRERPPRLPRPRPRPMREPRP,0.992
16,RRIRYRPPRLPRPRPRPLQRPRP,-0.208
17,RRIRTRPPRLPRPRPRPMSRPRP,-0.361
18,RRIRLRPPRLPRPRPRPFGWPRP,0.0538
19,RRIRNRPPRLPRPRPRPHRTPRP,-0.827
20,RRIRHRPPRLPRPRPRPKMQPRP,-0.121
21,RRIRLRPPRLPRPRPRPQIPPRP,-0.273
